According to publication PMC8263008, “Inhibition of Fibrinolysis by Streptococcal Phage LysinSM1” (mBio, 2021):

What was measured:
[1] = biological target: purified human fibrinogen (human) (UniProt P02671); experiment: SPR; Reichert-4 SR7500DC; human fibrinogen (0.1 μM, sodium acetate pH 5.5) covalently immobilised on a PEG gold chip; analytes in PBS, 30 μl/min, 3 min association and dissociation; KD from response at equilibrium against concentration
[2] = biological target: MalE-fibrinogen Aα534-610 (variant 8) (human); experiment: ELISA; fibrinogen Aα variants (0.1 μM in PBS) immobilised in 96-well plates; FLAG-lysin or plasminogen in PBS-T over a range of concentrations, 1 h 37°C; anti-FLAG or anti-plasminogen; non-linear regression, apparent KD
[3] = biological target: purified human fibrinogen (human) (UniProt P02671); experiment: ELISA; competition: immobilised fibrinogen (0.1 μM), 0 to 100 μM lysinSM1, lysin102-198 or lysin1-102, and 100 nM plasminogen; bound plasminogen detected with anti-plasminogen antibody
[4] = biological target: MalE-fibrinogen Aα534-610 (variant 8) (human); experiment: SPR; lysinSM1, lysin102-198 or plasminogen on recombinant variant 8 (Aα534-610); otherwise as for fibrinogen
[5] = biological target: MalE-fibrinogen Aα248-376 (variant 5) (human); experiment: ELISA; fibrinogen Aα variants (0.1 μM in PBS) immobilised in 96-well plates; FLAG-lysin or plasminogen in PBS-T over a range of concentrations, 1 h 37°C; anti-FLAG or anti-plasminogen; non-linear regression, apparent KD
[6] = biological target: T1, purified human fibrinogen (human, UniProt P02671 36-866; P02675 45-491; P02679 27-453, plasma fibrinogen hexamer (AαBβγ)2, 29 disulfides, glycosylated; fibrinopeptides A and B present; Aα taken as the circulating 610-residue form, Bβ starts at pyroGlu, γ as the major γA form (411 aa)); experiment: SPR; plasminogen (100 nM) over immobilised fibrinogen after PBS, and again after bound lysinSM1 was removed with glycine buffer pH 2.0; details: both partners purified
T1 sequence (P02671 36-866, chain 1 of 3): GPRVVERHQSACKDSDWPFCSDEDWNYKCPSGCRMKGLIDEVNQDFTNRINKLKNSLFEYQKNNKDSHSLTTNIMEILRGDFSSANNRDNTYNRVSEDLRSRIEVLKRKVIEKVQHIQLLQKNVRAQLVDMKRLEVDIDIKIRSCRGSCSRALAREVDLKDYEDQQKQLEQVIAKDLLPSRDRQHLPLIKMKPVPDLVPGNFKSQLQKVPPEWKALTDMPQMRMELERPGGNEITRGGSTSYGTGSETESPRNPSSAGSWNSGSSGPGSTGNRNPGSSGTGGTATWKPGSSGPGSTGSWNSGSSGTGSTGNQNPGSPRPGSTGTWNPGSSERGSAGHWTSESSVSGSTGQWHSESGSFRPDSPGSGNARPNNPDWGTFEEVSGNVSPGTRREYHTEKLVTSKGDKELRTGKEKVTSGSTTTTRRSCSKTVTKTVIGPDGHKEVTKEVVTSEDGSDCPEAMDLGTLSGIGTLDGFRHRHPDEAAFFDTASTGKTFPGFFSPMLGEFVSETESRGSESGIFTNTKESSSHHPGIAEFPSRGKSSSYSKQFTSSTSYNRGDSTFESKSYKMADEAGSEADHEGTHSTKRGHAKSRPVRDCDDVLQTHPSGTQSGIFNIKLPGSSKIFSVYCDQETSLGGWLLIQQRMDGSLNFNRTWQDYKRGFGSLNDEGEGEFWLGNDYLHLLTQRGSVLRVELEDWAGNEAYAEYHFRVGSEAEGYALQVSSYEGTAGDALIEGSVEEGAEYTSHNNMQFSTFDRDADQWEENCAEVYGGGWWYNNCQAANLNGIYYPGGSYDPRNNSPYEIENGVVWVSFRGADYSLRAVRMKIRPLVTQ
T1 sequence (P02675 45-491, chain 2 of 3): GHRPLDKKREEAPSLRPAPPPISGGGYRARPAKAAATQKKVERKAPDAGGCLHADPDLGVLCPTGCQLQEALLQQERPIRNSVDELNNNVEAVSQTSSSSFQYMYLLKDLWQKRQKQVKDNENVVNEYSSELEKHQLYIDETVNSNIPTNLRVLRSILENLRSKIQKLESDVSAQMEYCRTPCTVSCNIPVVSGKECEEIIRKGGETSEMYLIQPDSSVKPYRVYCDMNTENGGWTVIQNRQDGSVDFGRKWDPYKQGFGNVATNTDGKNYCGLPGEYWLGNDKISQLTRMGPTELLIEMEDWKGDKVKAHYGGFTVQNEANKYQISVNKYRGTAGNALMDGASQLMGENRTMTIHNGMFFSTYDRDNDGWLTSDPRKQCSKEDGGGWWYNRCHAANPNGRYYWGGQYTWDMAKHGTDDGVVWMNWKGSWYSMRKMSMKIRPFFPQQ
T1 sequence (P02679 27-453, chain 3 of 3): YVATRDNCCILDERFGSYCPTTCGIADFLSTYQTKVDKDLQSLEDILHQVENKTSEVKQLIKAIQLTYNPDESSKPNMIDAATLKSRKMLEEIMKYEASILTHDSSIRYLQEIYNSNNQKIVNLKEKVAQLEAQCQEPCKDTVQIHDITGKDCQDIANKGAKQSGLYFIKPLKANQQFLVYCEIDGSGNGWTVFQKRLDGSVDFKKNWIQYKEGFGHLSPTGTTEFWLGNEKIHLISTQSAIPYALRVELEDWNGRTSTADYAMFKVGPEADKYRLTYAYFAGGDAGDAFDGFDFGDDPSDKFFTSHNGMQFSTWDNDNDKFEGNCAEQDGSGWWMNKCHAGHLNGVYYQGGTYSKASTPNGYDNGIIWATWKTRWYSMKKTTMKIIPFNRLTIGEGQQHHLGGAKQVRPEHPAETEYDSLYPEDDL

[7] = biological target: T1, purified human fibrinogen; experiment: SPR; Reichert-4 SR7500DC; human fibrinogen (0.1 μM, sodium acetate pH 5.5) covalently immobilised on a PEG gold chip; analytes in PBS, 30 μl/min, 3 min association and dissociation; KD from response at equilibrium against concentration; details: both partners purified

Sequence of purified human fibrinogen (human) (P02671 36-866, chain 1 of 3): as the sequence (P02671 36-866, chain 1 of 3) above
Sequence of purified human fibrinogen (human) (P02675 45-491, chain 2 of 3, further chain): as the sequence (P02675 45-491, chain 2 of 3) above
Sequence of purified human fibrinogen (human) (P02679 27-453, chain 3 of 3, further chain): as the sequence (P02679 27-453, chain 3 of 3) above

Row | Molecule | Kd [1] | Kd [2] | percent inhibition of plasminogen binding to immobilised fibrinogen [3] | Kd [4] | Kd [5] | KD after bound lysinSM1 was removed with glycine buffer pH 2.0 [6] | Kd [6] | Kd [7]
1 | FLAG-tagged lysin102-198 (domain or fragment) | 23.2 µM | 48 µM | > 75% | 17.3 µM |  |  |  | 
2 | recombinant FLAG-tagged lysinSM1 (natural protein) | 31.5 µM |  | > 75% | 32.3 µM |  |  |  | 
3 | human plasminogen (natural protein, UniProt P00747 20-810, looked up, plasminogen, human; also called purified plasminogen; recombinant human plasminogen) EPLDDYVNTQGASLFSVTKKQLGAGSIEECAAKCEEDEEFTCRAFQYHSKEQQCVIMAENRKSSIIIRMRDVVLFEKKVYLSECKTGNGKNYRGTMSKTKNGITCQKWSSTSPHRPRFSPATHPSEGLEENYCRNPDNDPQGPWCYTTDPEKRYDYCDILECEEECMHCSGENYDGKISKTMSGLECQAWDSQSPHAHGYIPSKFPNKNLKKNYCRNPDRELRPWCFTTDPNKRWELCDIPRCTTPPPSSGPTYQCLKGTGENYRGNVAVTVSGHTCQHWSAQTPHTHNRTPENFPCKNLDENYCRNPDGKRAPWCHTTNSQVRWEYCKIPSCDSSPVSTEQLAPTAPPELTPVVQDCYHGDGQSYRGTSSTTTTGKKCQSWSSMTPHRHQKTPENYPNAGLTMNYCRNPDADKGPWCFTTDPSVRWEYCNLKKCSGTEASVVAPPPVVLLPDVETPSEEDCMFGNGKGYRGKRATTVTGTPCQDWAAQEPHRHSIFTPETNPRAGLEKNYCRNPDGDVGGPWCYTTNPRKLYDYCDVPQCAAPSFDCGKPQVEPKKCPGRVVGGCVAHPHSWPWQVSLRTRFGMHFCGGTLISPEWVLTAAHCLEKSPRPSSYKVILGAHQEVNLEPHVQEIEVSRLFLEPTRKDIALLKLSSPAVITDKVIPACLPSPNYVVADRTECFITGWGETQGTFGAGLLKEAQLPVIENKVCNRYEFLNGRVQSTELCAGHLAGGTDSCQGDSGGPLVCFEKDKYILQGVTSWGLGCARPNKPGVYVRVSRFVTWIEGVMRNN |  | 18 µM |  | 17.2 µM | 85 µM | 1.68e-05 M | 19.2 µM | 10.4 µM
